According to US7196181B1, “Sequences encoding novel human thyroid peroxidase proteins and polypeptides” (Quest Diagnostics Investments, Inc., priority 1989, dated 2007):
Where “and” joins values, the source holds several entries; their conditions need not be identical. Equal entries are not always repeated. Values belong to the molecule of their own block, whether it stands above or below them.

How the values were obtained:
[1] = tested on: CHO-TPO12b cells; assay: Radiolabeled D-glucosamine incorporation into proteins, control experiment; format: cell-based, Chinese hamster; conditions: tunicamycin treatment under similar conditions (0.5 μg/ml, 20 hours); mean±S.D.; n=3
Experimental: Human TPO contains 5 potential glycosylation sites. It was therefore examined whether carbohydrate moieties are important in the conformation of the epitope(s) in the human TPO antigen(s) recognized by Hashimoto's sera. Western blot analyses were performed on proteins extracted from CHO-TPO12b cells pre-cultured for 20 hours in 0.5 μg/ml tunicamycin, an inhibitor of protein glycosylation. This length of time was chosen because it was the longest tolerated without evidence of significant toxicity (i.e., cell loss). […] In a control experiment, tunicamycin treatment under similar conditions decreased radiolabeled D-glucosamine incorporation into proteins by 56.3±4.8% (mean±S.D.; n=3).

[2] = target: secreted truncated recombinant human thyroid peroxidase (hTPO-M1) (human) (UniProt P07202); assay: competition with serum TPO autoantibodies (5 sera); Protein A precipitation
[3] = target: secreted truncated recombinant human thyroid peroxidase (hTPO-M1) (human) (UniProt P07202); assay: competition ELISA on secreted TPO; competitor: serum IgG4 TPO autoantibody, second patient; design: concentration or dose not given beside the values
[4] = target: secreted truncated recombinant human thyroid peroxidase (hTPO-M1) (human) (UniProt P07202); assay: competition ELISA on secreted TPO; competitor: serum IgG1 TPO autoantibody, first patient; design: concentration or dose not given beside the values
[5] = target: secreted truncated recombinant human thyroid peroxidase (hTPO-M1) (human) (UniProt P07202); assay: Scatchard analysis, 125I-TPO
[6] = target: secreted truncated recombinant human thyroid peroxidase (hTPO-M1) (human) (UniProt P07202); assay: Scatchard analysis; 125I-TPO with unlabeled TPO, anti-kappa/Sac-cel precipitation
[7] = target: secreted truncated recombinant human thyroid peroxidase (hTPO-M1) (human) (UniProt P07202); assay: competition ELISA on secreted TPO; competitor: serum IgG1 TPO autoantibody, second patient; design: concentration or dose not given beside the values
[8] = target: secreted truncated recombinant human thyroid peroxidase (hTPO-M1) (human) (UniProt P07202); assay: confluent plaque lysis assay; competition of unlabeled TPO with 125I-TPO, densitometry
[9] = target: secreted truncated recombinant human thyroid peroxidase (hTPO-M1) (human) (UniProt P07202); assay: competition ELISA on secreted TPO; competitor: serum IgG2 TPO autoantibody, third patient; design: concentration or dose not given beside the values
[10] = target: secreted truncated recombinant human thyroid peroxidase (hTPO-M1) (human) (UniProt P07202); assay: Scatchard analysis; unlabeled TPO competing with 125I-TPO for the Fab
[11] = target: secreted truncated recombinant human thyroid peroxidase (hTPO-M1) (human) (UniProt P07202); assay: competition ELISA on secreted TPO; competitor: serum IgG4 TPO autoantibody, first patient; design: concentration or dose not given beside the values
[12] = target: secreted truncated recombinant human thyroid peroxidase (hTPO-M1) (human) (UniProt P07202); assay: competition ELISA on secreted TPO; competitor: serum lambda TPO autoantibodies (4 sera)
[13] = target: secreted truncated recombinant human thyroid peroxidase (hTPO-M1) (human) (UniProt P07202); assay: competition with serum TPO autoantibodies (11 sera); SP1.2 10^-10 to 10^-7 M; Protein A precipitation
[14] = tested on: Thyroid Peroxidase (TPO); assay: Assay of human TPO enzymatic activity (guaiacol and iodide peroxidase); format: biochemical; conditions: conditioned medium of transfected CHO cells, collected after 3 days of culture
Experimental: […] P., et al., Endocrinol. 116:1493-1500 (1985)). In later experiments, a more rapid method was used. Cells were suspended with a rubber scraper in 1.5 ml calcium-magnesium free Dulbecco's phosphate-buffered saline and protein determined on a 5 ul aliquot. […] […] One guaiacol unit is defined as a _A470 of 1.0 per minute which is equivalent to 150 nmols guaiacol oxidized per minute (Chance, B., et al., In Methods in Enzymology (Colonic. S. P., et al.), Academic Press, New York 2:164-[…] (1955)). One unit of iodide peroxidase is defined as a _A353 of 1.0 per minute which corresponds to 43 nmols I3-formed per minute (Magnusson, R. P., et al., J. Biol. Chem. 259:13783-13790 (1984)).

[15] = target: T1, recombinant human thyroid peroxidase (hTPO), full-length wild-type, expressed in CHO cells (human, UniProt P07202 19-933); assay: lectin affinity chromatography of 35S-labeled CHO-TPO extract, then immunoprecipitation
T1 construct: Used on intact CHO cells (FACS), as CHO microsomes (ELISA) and as non-denatured detergent extracts (non-reducing Western blot, immunoprecipitation); also called human TPO; thyroid microsomal antigen
T1 sequence: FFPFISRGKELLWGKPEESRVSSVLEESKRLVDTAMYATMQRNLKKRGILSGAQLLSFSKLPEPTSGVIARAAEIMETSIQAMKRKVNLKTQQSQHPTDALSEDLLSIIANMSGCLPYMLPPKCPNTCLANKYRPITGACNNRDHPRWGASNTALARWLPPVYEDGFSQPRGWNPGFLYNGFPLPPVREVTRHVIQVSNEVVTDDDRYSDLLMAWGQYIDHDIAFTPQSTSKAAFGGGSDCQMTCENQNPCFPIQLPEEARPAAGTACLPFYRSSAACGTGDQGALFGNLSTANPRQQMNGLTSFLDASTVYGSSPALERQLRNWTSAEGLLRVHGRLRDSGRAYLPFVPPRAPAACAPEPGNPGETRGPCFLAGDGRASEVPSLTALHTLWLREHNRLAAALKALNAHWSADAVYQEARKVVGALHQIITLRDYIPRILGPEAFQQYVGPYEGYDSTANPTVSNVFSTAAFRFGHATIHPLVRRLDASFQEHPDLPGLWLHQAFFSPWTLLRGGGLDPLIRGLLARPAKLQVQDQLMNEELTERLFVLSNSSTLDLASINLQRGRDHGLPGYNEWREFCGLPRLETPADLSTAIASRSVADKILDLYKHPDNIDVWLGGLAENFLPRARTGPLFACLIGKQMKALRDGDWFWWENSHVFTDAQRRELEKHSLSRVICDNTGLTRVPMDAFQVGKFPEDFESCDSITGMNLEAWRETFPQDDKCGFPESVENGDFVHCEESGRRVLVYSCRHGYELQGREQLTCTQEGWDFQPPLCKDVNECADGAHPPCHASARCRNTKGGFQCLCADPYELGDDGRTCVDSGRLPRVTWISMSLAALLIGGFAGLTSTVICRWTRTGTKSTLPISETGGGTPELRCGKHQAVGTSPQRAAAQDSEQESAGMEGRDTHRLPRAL

Molecule: tunicamycin
Decrease of radiolabeled D-glucosamine incorporation into proteins [1]: 56.3±4.8%

Molecule: human TPO-specific Fab fragment SP1.2
mean % inhibition of serum autoantibody binding to 125I-TPO [2]: 55% | % inhibition [3]: 13% | % inhibition [4]: 14% | Kd [5]: 0.06 nM and 0.08 nM | Kd [6]: 0.08 nM | % inhibition [7]: 62% | Kd [8]: 1 nM | % inhibition [9]: 29% | Kd [10]: 0.083 nM | % inhibition [11]: 77% | % inhibition [12]: 12 to 18% | maximum % inhibition of serum autoantibody binding to 125I-TPO [13]: 36 to 72%

B3: mutated form of hTPO: truncated, secreted recombinant human TPO (848 amino acids) from CHO-TPO-M1-K1 cells (protein)
chain: FFPFISRGKELLWGKPEESRVSSVLEESKRLVDTAMYATMQRNLKKRGILSGAQLLSFSKLPEPTSGVIARAAEIMETSIQAMKRKVNLKTQQSQHPTDALSEDLLSIIANMSGCLPYMLPPKCPNTCLANKYRPITGACNNRDHPRWGASNTALARWLPPVYEDGFSQPRGWNPGFLYNGFPLPPVREVTRHVIQVSNEVVTDDDRYSDLLMAWGQYIDHDIAFTPQSTSKAAFGGGSDCQMTCENQNPCFPIQLPEEARPAAGTACLPFYRSSAACGTGDQGALFGNLSTANPRQQMNGLTSFLDASTVYGSSPALERQLRNWTSAEGLLRVHGRLRDSGRAYLPFVPPRAPAACAPEPGNPGETRGPCFLAGDGRASEVPSLTALHTLWLREHNRLAAALKALNAHWSADAVYQEARKVVGALHQIITLRDYIPRILGPEAFQQYVGPYEGYDSTANPTVSNVFSTAAFRFGHATIHPLVRRLDASFQEHPDLPGLWLHQAFFSPWTLLRGGGLDPLIRGLLARPAKLQVQDQLMNEELTERLFVLSNSSTLDLASINLQRGRDHGLPGYNEWREFCGLPRLETPADLSTAIASRSVADKILDLYKHPDNIDVWLGGLAENFLPRARTGPLFACLIGKQMKALRDGDWFWWENSHVFTDAQRRELEKHSLSRVICDNTGLTRVPMDAFQVGKFPEDFESCDSITGMNLEAWRETFPQDDKCGFPESVENGDFVHCEESGRRVLVYSCRHGYELQGREQLTCTQEGWDFQPPLCKDVNECADGAHPPCHASARCRNTKGGFQCLCADPYELGDDGRTCVDSGRLPRVT
TPO activity in culture medium [14]: 1.0 guaiacol U/10 ml medium

Further lines, results first:

TPO activity in culture medium [14]: no detectable enzymatic activity
B1: wild-type hTPO: full-length membrane-associated recombinant human TPO expressed in CHO cells (protein, UniProt P07202 1-933, looked up)
chain: MRALAVLSVTLVMACTEAFFPFISRGKELLWGKPEESRVSSVLEESKRLVDTAMYATMQRNLKKRGILSPAQLLSFSKLPEPTSGVIARAAEIMETSIQAMKRKVNLKTQQSQHPTDALSEDLLSIIANMSGCLPYMLPPKCPNTCLANKYRPITGACNNRDHPRWGASNTALARWLPPVYEDGFSQPRGWNPGFLYNGFPLPPVREVTRHVIQVSNEVVTDDDRYSDLLMAWGQYIDHDIAFTPQSTSKAAFGGGADCQMTCENQNPCFPIQLPEEARPAAGTACLPFYRSSAACGTGDQGALFGNLSTANPRQQMNGLTSFLDASTVYGSSPALERQLRNWTSAEGLLRVHARLRDSGRAYLPFVPPRAPAACAPEPGIPGETRGPCFLAGDGRASEVPSLTALHTLWLREHNRLAAALKALNAHWSADAVYQEARKVVGALHQIITLRDYIPRILGPEAFQQYVGPYEGYDSTANPTVSNVFSTAAFRFGHATIHPLVRRLDASFQEHPDLPGLWLHQAFFSPWTLLRGGGLDPLIRGLLARPAKLQVQDQLMNEELTERLFVLSNSSTLDLASINLQRGRDHGLPGYNEWREFCGLPRLETPADLSTAIASRSVADKILDLYKHPDNIDVWLGGLAENFLPRARTGPLFACLIGKQMKALRDGDWFWWENSHVFTDAQRRELEKHSLSRVICDNTGLTRVPMDAFQVGKFPEDFESCDSITGMNLEAWRETFPQDDKCGFPESVENGDFVHCEESGRRVLVYSCRHGYELQGREQLTCTQEGWDFQPPLCKDVNECADGAHPPCHASARCRNTKGGFQCLCADPYELGDDGRTCVDSGRLPRVTWISMSLAALLIGGFAGLTSTVICRWTRTGTKSTLPISETGGGTPELRCGKHQAVGTSPQRAAAQDSEQESAGMEGRDTHRLPRAL
modifications: full-length
notes: full-length membrane-associated recombinant human TPO expressed in CHO cells

binding result [15]: no binding
B2: peanut agglutinin (agarose-bound lectin) (other, UniProt P02872 24-259, looked up)
chain: AETVSFNFNSFSEGNPAINFQGDVTVLSNGNIQLTNLNKVNSVGRVLYAMPVRIWSSATGNVASFLTSFSFEMKDIKDYDPADGIIFFIAPEDTQIPAGSIGGGTLGVSDTKGAGHFVGVEFDTYSNSEYNDPPTDHVGIDVNSVDSVKTVPWNSVSGAVVKVTVIYDSSTKTLSVAVTNDNGDITTIAQVVDLKAKLPERVKFGFSASGSLGGRQIHLIRSWSFTSTLITTTRRS
notes: also called PNA

binding result [15]: no binding
B4: Ulex europaeus lectin (agarose-bound) (other)
chain: SDDLSFKFKNFSQNGKDLSFQGDASVIETGVLQLNKVGNNLPDETGGIARYIAPIHIWNCNTGEVASFITSFSFFMETSANPKAATDGLTFFLAPPDSPLRRAGGYFGLFEDTKDNDSSYQTVAVEFDTIGSPVNFDDPGFPHIGIDVNRVKSINAERWNKRYGLNNVANVEIIYEASSKTLTASLTYPSDQTSISVTSIVDLKEILPEWVSVGFSGGTYIGRQATHEVLNWYFTSNLINTNS
modifications: Lectin immobilised on agarose beads. The native lectin is a glycosylated homodimer; one subunit is given.
notes: also called UEA-F
